How the values were obtained:
His6-T7 RNA polymerase [1] = target: T1, His6-T7 RNA polymerase (bacteriophage T7, UniProt P00573 1-883); assay: smFRET; no NTPs; ~0.2 FRET; Transcription-scanning buffer: 40 mM Tris-HCl pH 7.9, 5 mM Mg2+, 60 mM Na+, 0.2 mg/ml BSA, 2 mM Trolox, PCA/PCD; 0.5-5 nM RNAP, 20 nM AID; temperature and ssDNA
His6-T7 RNA polymerase [2] = target: T1, His6-T7 RNA polymerase; assay: smFRET; no NTPs; ~0.95 FRET; Transcription-scanning buffer: 40 mM Tris-HCl pH 7.9, 5 mM Mg2+, 60 mM Na+, 0.2 mg/ml BSA, 2 mM Trolox, PCA/PCD; 0.5-5 nM RNAP, 20 nM AID; temperature and ssDNA
His6-T7 RNA polymerase [3] = target: T1, His6-T7 RNA polymerase; assay: smFRET; no NTPs; Transcription-scanning buffer: 40 mM Tris-HCl pH 7.9, 5 mM Mg2+, 60 mM Na+, 0.2 mg/ml BSA, 2 mM Trolox, PCA/PCD; 0.5-5 nM RNAP, 20 nM AID; temperature and ssDNA
His6-T7 RNA polymerase [4] = target: T1, His6-T7 RNA polymerase; assay: smFRET; no NTPs; ~0.4 FRET; Transcription-scanning buffer: 40 mM Tris-HCl pH 7.9, 5 mM Mg2+, 60 mM Na+, 0.2 mg/ml BSA, 2 mM Trolox, PCA/PCD; 0.5-5 nM RNAP, 20 nM AID; temperature and ssDNA
His6-T7 RNA polymerase [5] = target: T1, His6-T7 RNA polymerase; assay: smFRET; no NTPs; ~0.85 FRET; Transcription-scanning buffer: 40 mM Tris-HCl pH 7.9, 5 mM Mg2+, 60 mM Na+, 0.2 mg/ml BSA, 2 mM Trolox, PCA/PCD; 0.5-5 nM RNAP, 20 nM AID; temperature and ssDNA

T1 sequence (P00573 whole entry): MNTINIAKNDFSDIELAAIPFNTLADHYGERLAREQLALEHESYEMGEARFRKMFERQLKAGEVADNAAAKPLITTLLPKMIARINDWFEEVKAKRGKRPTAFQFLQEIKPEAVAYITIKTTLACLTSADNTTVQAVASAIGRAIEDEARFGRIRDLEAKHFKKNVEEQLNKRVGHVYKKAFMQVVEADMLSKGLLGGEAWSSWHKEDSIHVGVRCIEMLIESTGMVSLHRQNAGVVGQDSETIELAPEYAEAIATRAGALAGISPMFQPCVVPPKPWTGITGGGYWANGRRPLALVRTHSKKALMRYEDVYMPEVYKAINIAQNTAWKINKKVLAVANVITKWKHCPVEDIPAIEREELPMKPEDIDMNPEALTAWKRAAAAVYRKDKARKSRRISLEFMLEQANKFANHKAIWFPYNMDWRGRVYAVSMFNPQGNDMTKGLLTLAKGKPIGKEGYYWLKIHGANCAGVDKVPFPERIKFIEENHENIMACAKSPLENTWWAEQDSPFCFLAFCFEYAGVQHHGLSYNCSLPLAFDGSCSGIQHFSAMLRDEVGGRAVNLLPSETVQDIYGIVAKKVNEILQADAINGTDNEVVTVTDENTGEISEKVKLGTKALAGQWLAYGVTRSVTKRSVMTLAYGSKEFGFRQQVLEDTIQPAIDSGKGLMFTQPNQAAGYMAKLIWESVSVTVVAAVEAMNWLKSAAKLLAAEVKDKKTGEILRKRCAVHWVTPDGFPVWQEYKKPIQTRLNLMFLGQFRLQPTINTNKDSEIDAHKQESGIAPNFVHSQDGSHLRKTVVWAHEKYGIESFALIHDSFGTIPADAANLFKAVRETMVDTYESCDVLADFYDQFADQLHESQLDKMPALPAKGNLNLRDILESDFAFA

B1: 69/66-mer T7 promoter dsDNA (promoter 39 bp from Cy3 end) (dsDNA)
DNA 1: TTTCAGAGATGCATAATACGACTCACTATAGGGAGAAAAGGGGAAAGCAAAGAGGAAAGGTGAGGAGGT
DNA 2: ACCTCCTCACCTTTCCTCTTTGCTTTCCCCTTTTCTCCCTATAGTGAGTCGTATTATGCATCTCTG
His6-T7 RNA polymerase [1]
  binding result: binds

B2: T7 promoter dsDNA shifted 30 bp downstream (9 bp from Cy3 end) (dsDNA)
DNA 1: TTTGGGGAAAGCAAAGAGGAAAGGTGAGGAGGTCAGAGATGCATAATACGACTCACTATAGGGAGAAAA
DNA 2: TTTTCTCCCTATAGTGAGTCGTATTATGCATCTCTGACCTCCTCACCTTTCCTCTTTGCTTTCCCC
His6-T7 RNA polymerase [2]
  binding result: binds

B3: No-promoter dsDNA 66-mer (dsDNA)
DNA 1: CAGAGATGCAGCCGTCCGTATCCGTATTGTAGAAAAGGGGAAAGCAAAGAGGAAAGGTGAGGAGGT
DNA 2: ACCTCCTCACCTTTCCTCTTTGCTTTCCCCTTTTCTACAATACGGATACGGACGGCTGCATCTCTG
His6-T7 RNA polymerase [3]
  binding result: no binding

B4: T7 promoter dsDNA shifted 10 bp downstream (29 bp from Cy3 end) (dsDNA)
DNA 1: TTTGTGAGGAGGTCAGAGATGCATAATACGACTCACTATAGGGAGAAAAGGGGAAAGCAAAGAGGAAAG
DNA 2: CTTTCCTCTTTGCTTTCCCCTTTTCTCCCTATAGTGAGTCGTATTATGCATCTCTGACCTCCTCAC
His6-T7 RNA polymerase [4]
  binding result: binds

B5: T7 promoter dsDNA shifted 20 bp downstream (19 bp from Cy3 end) (dsDNA)
DNA 1: TTTAAGAGGAAAGGTGAGGAGGTCAGAGATGCATAATACGACTCACTATAGGGAGAAAAGGGGAAAGCA
DNA 2: TGCTTTCCCCTTTTCTCCCTATAGTGAGTCGTATTATGCATCTCTGACCTCCTCACCTTTCCTCTT
His6-T7 RNA polymerase [5]
  binding result: binds
